T1: RTDTIFWPGC
T1 peptide: RTDTIFWPGC

T2: PDGF-C peptide epitope SVSIREELKC (human)
T2 construct: Synthesised with a C-terminal cysteine for thiol immobilisation on the sensor chip
T2 peptide: SVSIREELKC

T3: overlapping PDGF-C peptide EELKRTDTIFC (human)
T3 construct: Synthesised with a C-terminal cysteine for thiol immobilisation
T3 peptide: EELKRTDTIFC

T4: corresponding PDGF-D peptide SVNIREELKC (human)
T4 construct: Synthesised with a C-terminal cysteine; also called alternate peptide
T4 peptide: SVNIREELKC

B1: humanized anti-PDGF-CC antibody 6B3 (hu6B3), heavy chain R30 (antibody, V domains shown)
VH: QVQLVQSGAEVKKPGASVKVSCKASGYTFRSYGITWVRQATGQGLEWMGEIYPRSGKTGYAQKFQGRVTMTADTSTSTVYMELRSLRSEDSAVYFCAREGYGYDGGYFDYWGQGTLVTVSS
VL: DIVMTQSPSSLAMSVGERATINCKSSQSLLNSRNQKNYLAWYQQKPGQPPKLLIYFASTRESGVPDRFSGSGSGTDFTLTISSVQAEDVAVYYCQQHYSTPLTFGGGTKVELKR
notes: Human IgG1 kappa as the final form; also called hu6B3 R; hu6B3 R30
B2: monoclonal antibody 12F5 (antibody, mouse IgG2a, V domains shown)
VH: EVKLEESGGGLVQPGGSRELSCEGSGFTFSGFWMSWVRQTPGKTLEWIGDINSDGSAIIYAPSIKDRFTIFRDNDKSTLYLQMNNVRSEDTATYFCMRWGYYGSNYFDYWGQGTTLTVSS
VL: DVVMTQTPLSLPVSLGDQASISCRSSQSIVHSNGNTYLHWYLQKPGQSPKLLIYRVSNRFSGVPDRFSGSGSGTDFTLKISRVEAEDMGVYYCFQGTHVPFTFGSGTKLEIKR
notes: Murine IgG2a, kappa light chain; also called anti-PDGF-CC mAb 12F5
B3: Peptide 3 (SVSIREELKRTDTIFWPGC) (peptide)
peptide: SVSIREELKRTDTIFWPGC
notes: Synthetic peptide; also called PDGFC peptide 3
B4: monoclonal antibody 6B3 (antibody, mouse IgG2a, V domains shown)
VH: QVQLQQSGVEVARPGASVKLSCKASGYTFRSYGITWVRQRTGQGLEWIGEIYPRSGKTYYNEKFKGKATLTADTSSSTVYMELRSLTSEDSAVYFCAREGYGYDGGYFDYWGQGTTLTVSS
VL: DIVMTQSPSSLAMSVGQKVTMSCKSSQSLLNSRNQKNYLAWYQQKPGQSPKLLVYFASTRESGVPDRFTGSGSGTDFTLTISSVQAEDLAVYYCQQHYSTPLTFGAGTKLELKR
notes: The variable domains are identical to those of 19C7; also called mu6B3; murine 6B3
B5: monoclonal antibody 11F5 (antibody, mouse IgG2a, V domains shown)
VH: QVQLQQSGAELARPGASVKLSCKASGYIFISYGISWVKQRTGQGLEWIGEIYPRSGKTYYNEKFKDKAALTADKSSSIAYMELRSLTSEDSAVYFCAREGYGYDGGYFDYWGQGTILTVSS
VL: B4 VL with T20A, M21V, R33S, E61D
notes: Murine IgG2a, kappa light chain
B6: monoclonal antibody 19C7 (antibody, mouse IgG2a, V domains shown)
VH: B4 VH
VL: B4 VL
notes: as for B5
B7: chimeric anti-PDGF-CC antibody 6B3 (ch6B3) (antibody, V domains shown)
VH: B4 VH with R30G
VL: B4 VL
notes: also called chimeric 6B3; mouse-human chimeric antibody 6B3

Assay [1] deals with T5, recombinant human PDGF-CC active core domain protein with terminal histidine tag (human, UniProt Q9NRA1 231-345).
T5 construct: Made in baculovirus-infected Sf9 cells; The position of the tag in the chain is not known; also called RhPC; RhPCc; not shown: terminal histidine tag
T5 sequence (Q9NRA1 231-345 limits assumed): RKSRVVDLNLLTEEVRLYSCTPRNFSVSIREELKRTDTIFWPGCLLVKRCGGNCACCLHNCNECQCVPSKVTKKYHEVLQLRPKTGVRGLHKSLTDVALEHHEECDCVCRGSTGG
Description: ELISA on coated PDGF-AA, -BB, -CC, -DD and BSA.

Assay [2] has as its target T6, recombinant human PDGF-DD (human, UniProt Q9GZP0 250-370, limits assumed).
T6 construct: The construct is not described; also called PDGF-D polypeptide; PDGF-DD (R&D)
Description: ELISA on coated PDGF-AA, -BB, -CC, -DD and BSA.

The target in assay [3] is T7, recombinant human PDGF-BB (human, UniProt P01127 82-190).
T7 construct: Bought; The construct is not described; also called PB
T7 sequence (P01127 82-190): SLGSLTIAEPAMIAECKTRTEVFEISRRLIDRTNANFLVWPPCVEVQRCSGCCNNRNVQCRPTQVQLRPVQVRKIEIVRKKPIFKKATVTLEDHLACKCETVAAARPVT
Nature of the assay: ELISA on coated PDGF-AA, -BB, -CC, -DD and BSA. On the technique in general: ELISA stands for enzyme-linked immunosorbent assay.

Assay [4] addresses T8, recombinant human PDGF-AA (human, UniProt P04085 87-211).
T8 construct: Bought; The construct is not described
Description: ELISA on coated PDGF-AA, -BB, -CC, -DD and BSA.

For assay [5], the target named is T5, recombinant human PDGF-CC active core …. Description: SPR, BIAcore 2000, His-tagged PDGF-CC on Ni-NTA chip, antibody as analyte, 1:1 Langmuir fit (apparent). As to the method: Biosensor analyses were performed on a BIAcore 2000 biosensor using an NTA sensor chip. Briefly, a NTA sensor chip was loaded with Ni 2+ and used to immobilize histidine tagged PDGF-CC ligand. The PDGF-CC antibodies were passed over the chip at varying concentrations in order to determine apparent affinity (KD). Chips were regenerated with EGTA. The chip was re-equilibrated by washing with HBS (containing no EDTA) before further analyses. Using BIAevaluation software, a 1:1 Langmuir binding analysis model was used to estimate the apparent association (ka) and disassociation (kd) rate constants for each set of antibody experiments.
In general terms: Surface plasmon resonance follows binding to a sensor surface in real time, without labels.

The target of assay [6] is T6, recombinant human PDGF-DD. Nature of the assay: ELISA, PDGF ligands coated at 1 µg/ml, purified mAb at 1.5 µg/ml. The protocol: (§1) Following immunisation of mice and splenic fusions by standard procedures, the supernatant of 16 hybridomas were initially assessed for PDGF-CC binding specificity by ELISA and Western analysis. A sensitive ELISA assay was employed to explore this using commercially available PDGF-AA, PDGF-BB, PDGF-DD and recombinant PDGF-CC. Specifically, antigen immobilization of purified recombinant human PDGF ligands, PDGF-AA, BB, CC and DD diluted in 100 mM NaHCO₃ at the concentration of 1μg/ml, was performed overnight at +4° C. Thereafter, all incubations were done at room temperature 1.5-2 hours and washes carried out with PBS. In triplicate, hybridoma supernatants were applied at a dilution of 1:2 in PBS/1% bovine serum albumin (BSA), or purified monoclonal antibody (mAbs) was added (1.5μg/ml in 3% BSA). A rabbit polyclonal IgG—purified antibody was used as positive control (4 μg/ml). Binding was detected with an anti—mouse (or anti—rabbit in control) alkaline phosphatase—conjugated secondary antibody and visualized by incubation with alkaline phosphatase yellow (pNPP) liquid substrate system for ELISA (Sigma—Aldrich). Absorbance was read at 405 nm.

Assay [7] has as its target T7, recombinant human PDGF-BB. The assay is described as above. As to the method:
as §1

Assay [8] deals with T8, recombinant human PDGF-AA. The description is as above. The protocol:
as §1

For the assay “monoclonal antibody 6B3”, the target named is B4. Nature of the assay: Biacore competition: 6B3 (333 nM) with soluble peptide injected over immobilised PDGF-CC core protein, maximum response plotted. As to the method: Biosensor analyses were performed on a BlAcore 2000 biosensor using a carboxymethyldextran-coated sensor chip (Xantec CMD). The chip was derivatised on channel 2 with the PDGF-CC core antigen (60 μg/mL) using standard amine coupling chemistry (0.05M NHS/0.2M EDC). Channel 1 was derivatised with ethanolamine and used as a blank control channel for correction of refractive index effects.
After the injection phase, the dissociation was monitored by flowing HBS buffer over the chip surface for 360s. Bound antibody was eluted and the chip surface regenerated between samples by injection of 30 μl of 10 mM Glycine pH 2.0

For the next assay, the target named is T1, RTDTIFWPGC
Description: Biacore, 6B3 at 20.8 nM-667 nM over thiol-immobilised peptide.

Assay [9] concerns the target T2, PDGF-C peptide epitope SVSIREELKC
The assay is described as above.

Assay [10] deals with T3, overlapping PDGF-C peptide EELKRTDTIFC
Described as above.

In assay [11] the target is T9, mouse PDGF-C core protein (mouse, UniProt Q8CI19 231-345, limits assumed).
T9 construct: also called COSmPCcoremedia
T9 sequence (Q8CI19 231-345 limits assumed): as the sequence (Q9NRA1 231-345 limits assumed) above, with R1K, R4K, D7N, T12K, R16K, S69R, R88K, S112N, T113A counted along it
Nature of the assay: immunoblot of COS-1 supernatant with mouse PDGF-C core, probed with purified antibody. The protocol:
To produce the mouse PDGF-CC protein, COS-1 cells were transfected with mouse PDGF-C core plasmid constructed in expression vector pCDNA3.1 (Invitrogen). Transfection using lipofectamine plus reagent (Invitrogen) was performed according to the manufacturer's instructions. Transfected cells were cultured in serum free media. At 24 hours post-transfection, culture supernatant (COSmPCcoremedia) was collected and 30 μl sample was loaded on SDS-PAGE together with human PDGF-C core protein (0.1 μg RhPcc) and proteins separated by SDS-PAGE. Protein was then isolated using standard means.
A general note: A western blot detects proteins with antibodies after separation by electrophoresis.

Assay [12] addresses B3. Description: SPR, 6B3 (20.8 nM-667 nM) over thiol-immobilised peptide 3. As to the method:
Peptide 3 was immobilized on channel 4 of the carboxymethyldextran-coated sensor chip using thiol chemistry. Briefly, the chip was activated on channel 4 using standard amine coupling chemistry (0.05M NHS/0.2M EDC) followed by 80 mM (2-(2-pyridinyldithio)ethane amine (PDEA) in 1M borate PH 8.2. Peptide 3 (100 nM in 10 mM sodium acetate pH 4.5) was conjugated via its C-terminal cysteine to PDEA. The chip was then blocked using 40 mM L-cysteine in 10 mM sodium acetate pH 4.0 and 1 M ethanolamine pH 8.2. A blank derivatised channel was used as the control channel.
Samples of antibody 6B3 (20.8 nM-667 nM) were injected (30 μL at 10 μL/min) in HBS buffer over immobilized peptide 3. Specific binding was observed as compared to the blank channel and then investigated further with smaller overlapping peptide sequences (data not shown).

The target of assay [13] is T4, corresponding PDGF-D peptide SVNIREELKC
Nature of the assay: Biacore, 6B3 over thiol-immobilised peptide. As to the method: Samples of 6B3 antibody (1.334 μM) was injected (30 μL at 10 μL/min) in HBS buffer over the immobilized peptides.

In assay [14] the target is T6, recombinant human PDGF-DD. Description: immunoblot of recombinant PDGF-D after SDS-PAGE, probed with hybridoma supernatant, exposure 10 seconds.

Substitutions are numbered along the chain they refer to.

Seven molecules from patent US20220275075A1 (PARACRINE THERAPEUTICS, published 2022) can be followed below.

The koff is the rate constant with which the complex falls apart. In general, kon refers to the rate constant with which the complex forms.

T6 sequence (Q9GZP0 250-370 limits assumed): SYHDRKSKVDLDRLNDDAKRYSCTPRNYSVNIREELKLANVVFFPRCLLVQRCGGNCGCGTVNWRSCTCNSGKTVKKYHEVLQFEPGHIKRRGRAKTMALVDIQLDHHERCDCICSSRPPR

As to B1, the binding result in [1] was “binds”; in [2], “no binding”; in assay [3], “no binding”; in [4], “no binding”.
As to B2, in assay [5], the Kd stood at 2200 pM, the koff worked out at 0.0002 s⁻¹ and the on-rate constant (kon) came to 90000 M⁻¹ s⁻¹. Further, the binding result in assay [6] was “no binding (tested: 1.5 µg/ml)”. Also, the binding result in assay [7] is listed as “no binding (tested: 1.5 µg/ml)”. Besides, in assay [8], the binding result is listed as “no binding (tested: 1.5 µg/ml)”.
For the molecule B3, in the assay with monoclonal antibody 6B3, the binding result is reported as “binds”.
With B4, the binding result is given as “binds” in the assay with RTDTIFWPGC; “binds” in assay [9]; “no binding (tested: 667 nM)” in assay [10]; “no binding” in [11]; “no binding (tested: 1.5 µg/ml)” in [6]; “no binding (tested: 1.5 µg/ml)” in assay [7]. Moreover, the binding result in assay [8] is recorded as “no binding (tested: 1.5 µg/ml)”; in assay [12], “binds”; in assay [13], “no binding (tested: 1.334 µM (legend; paragraph 184 says 667 nM))”. In addition, in [5], the Kd worked out at 900 pM. The koff in assay [5] turned out to be 0.0015 s⁻¹. Further, the on-rate (kon) in assay [5] came to 1.8e+06 M⁻¹ s⁻¹.
With B5, in assay [5], the Kd was 1050 pM, the off-rate constant (koff) was 0.00058 s⁻¹ and the kon amounted to 640000 M⁻¹ s⁻¹. Also, in [7], the binding result is “no binding (tested: 1.5 µg/ml)”. For the same molecule, the binding result in assay [8] is on record as “no binding (tested: 1.5 µg/ml)”. The binding result in assay [14] is listed as “no binding”.
Consider B6, for which the Kd in [5] amounted to 700 pM. Moreover, in assay [5], the off-rate constant (koff) was found to be 0.0016 s⁻¹. The kon in assay [5] turned out to be 2.2e+06 M⁻¹ s⁻¹. Further, the binding result in assay [6], in [7] and in assay [8] was “no binding (tested: 1.5 µg/ml)” in each case.
Turning to B7, in assay [5], the Kd amounted to 700 pM, the koff turned out to be 0.00041 s⁻¹ and the kon is 600000 M⁻¹ s⁻¹. Also, the binding result in assay [2] is recorded as “no binding”. For the same molecule, in assay [3], the binding result is “no binding”. Further, in assay [4], the binding result was “no binding”.
